Laboratory results: patent US20260250398A1

Target: FZD1/2/4/5/7/8
Test: cell-based or functional assay

B1: CT0003 (Table 5: FZD Diabody-Fc-LRP scFv; paratopes 5016; 2539, 2542) (bispecific antibody)
chain 1: MNLLLILTFVAAAVAEFEVQLVESGGGLVQPGGSLRLSCAASGFNISSYYIHWVRQAPGKGLEWVASIYSSYGYTSYADSVKGRFTISADTSKNTAYLQMNSLRAEDTAVYYCARTVRGSKKPYFSGWAMDYWGQGTLVTVSSGGGGSDIQMTQSPSSLSASVGDRVTITCRASQSVSSAVAWYQQKPGKAPKLLIYSASSLYSGVPSRFSGSRSGTDFTLTISSLQPEDFATYYCQQYSWGPFTFGQGTKVEIKLEDKTHTKVEPKSSDKTHNCPPCPAPELLGGPSVFLFPPKPKDTLMISRTPEVTCVVVDVSHEDPEVKFNWYVDGVEVHNAKTKPREEQYNSTYRVVSVLTVLHQDWLNGKEYKCKVSNKALPAPIEKTISKAKGQPREPQVYTLPPIRELMTSNQVSLSCAVKGFYPSDIAVEWESNGQPENNYKTTPPVLDSDGSFFLVSKLTVDKSRWQQGNVFSCSVMHEALHNHYTQKSLSLSPGKSGSETPGTSESATPESGGGEVQLVESGGGLVQPGGSLRLSCAASGFNIHSSSIHWVRQAPGKGLEWVAATYSSFGSITYADSVKGRFTISADTSKNTAYLQMNSLRAEDTAVYYCARYHHPFGYALDYWGQGTLVTVSSGTTAASGSSGGSSSGADIQMTQSPSSLSASVGDRVTITCRASQSVSSAVAWYQQKPGKAPKLLIYSASSLYSGVPSRFSGSRSGTDFTLTISSLQPEDFATYYCQQGVYLFTFGQGTKVEIK
chain 2: MNLLLILTFVAAAVAEFEVQLVESGGGLVQPGGSLRLSCAASGFNISYSSIHWVRQAPGKGLEWVAYISSYYGYTYYADSVKGRFTISADTSKNTAYLQMNSLRAEDTAVYYCARAHYFPWAGAMDYWGQGTLVTVSSGGGGDIQMTQSPSSLSASVGDRVTITCRASQSVSSAVAWYQQKPGKAPKLLIYSASSLYSGVPSRFSGSRSGTDFTLTISSLQPEDFATYYCQQYYWPITFGQGTKVEIKLEDKTHTKVEPKTSDKTHTCPPCPAPELLGGPSVFLFPPKPKDTLMISRTPEVTCVVVDVSHEDPEVKFNWYVDGVEVHNAKTKPREEQYNSTYRVVSVLTVLHQDWLNGKEYKCKVSNKALPAPIEKTISKAKGQPREPMVFDLPPSREEMTKNQVSLWCMVKGFYPSDIAVEWESNGQPENNYKTTPPVLDSDGSFFLYSKLTVDKSRWQQGNVFSCSVMHEALHNHYTQKSLSLSPGKSGSETPGTSESATPESGGGEVQLVESGGGLVQPGGSLRLSCAASGFNIHSSSIHWVRQAPGKGLEWVAATYSSFGSITYADSVKGRFTISADTSKNTAYLQMNSLRAEDTAVYYCARYHHPFGYALDYWGQGTLVTVSSGTTAASGSSGGSSSGADIQMTQSPSSLSASVGDRVTITCRASQSVSSAVAWYQQKPGKAPKLLIYSASSLYSGVPSRFSGSRSGTDFTLTISSLQPEDFATYYCQQGVYLFTFGQGTKVEIK
  TOPFLASH % Wnt Maxima: 42 % Wnt Maxima
  TOPFLASH EC50: 0.4 nM

B2: CH3 (Dia-CH3-Dia; paratopes 5019; 2539) (bispecific antibody)
chain: MNLLLILTFVAAAVAEFEVQLVESGGGLVQPGGSLRLSCAASGFNIGSSSIHWVRQAPGKGLEWVASIYSAFASTSYADSVKGRFTISADTSKNTAYLQMNSLRAEDTAVYYCARYHFPFGFALDYWGQGTLVTVSSGGGGSDIQMTQSPSSLSASVGDRVTITCRASQSVSSAVAWYQQKPGKAPKLLIYSASSLYSGVPSRFSGSRSGTDFTLTISSLQPEDFATYYCQQGVYLFTFGQGTKVEIKDKTHTKVEPKTSDKTHTCPPCPGQPREPQVYTLPPSREEMTKNQVSLTCLVKGFYPSDIAVEWESNGQPENNYKTTPPVLDSDGSFFLYSKLTVDKSRWQQGNVFSCSVMHEALHNHYTQKSLSLSPGKGTTAASGSSGGSSSGAGRTEVQLVESGGGLVQPGGSLRLSCAASGFNISYSSIHWVRQAPGKGLEWVAYISSYYGYTYYADSVKGRFTISADTSKNTAYLQMNSLRAEDTAVYYCARAHYFPWAGAMDYWGQGTLVTVSSGGGGSDIQMTQSPSSLSASVGDRVTITCRASQSVSSAVAWYQQKPGKAPKLLIYSASSLYSGVPSRFSGSRSGTDFTLTISSLQPEDFATYYCQQYSWGPFTFGQGTKVEIK
  TOPFLASH Maximal Signal (% Wnt3a maxima) (% Wnt3a maxima): 22

B3: Fab-Dia (paratopes 5016; 2540/2542) (bispecific antibody)
heavy: EVQLVESGGGLVQPGGSLRLSCAASGFNIHSSSIHWVRQAPGKGLEWVAATYSSFGSITYADSVKGRFTISADTSKNTAYLQMNSLRAEDTAVYYCARYHHPFGYALDYWGQGTLVTVSSASTKGPSVFPLAPSSKSTSGGTAALGCLVKDYFPEPVTVSWNSGALTSGVHTFPAVLQSSGLYSLSSVVTVPSSSLGTQTYICNVNHKPSNTKVDKKVEPKSCDKTHTGGSGGEVQLVESGGGLVQPGGSLRLSCAASGFTISYSSIHWVRQAPGKGLEWVASISPYYGYTYYADSVKGRFTISADTSKNTAYLQMNSLRAEDTAVYYCARSSYFPWFSAMDYWGQGTLVTVSSGGGGSDIQMTQSPSSLSASVGDRVTITCRASQSVSSAVAWYQQKPGKAPKLLIYSASSLYSGVPSRFSGSRSGTDFTLTISSLQPEDFATYYCQQYYWPITFGQGTKVEIK
light: DIQMTQSPSSLSASVGDRVTITCRASQSVSSAVAWYQQKPGKAPKLLIYSASSLYSGVPSRFSGSRSGTDFTLTISSLQPEDFATYYCQQGVYLFTFGQGTKVEIKRTVAAPSVFIFPPSDEQLKSGTASVVCLLNNFYPREAKVQWKVDNALQSGNSQESVTEQDSKDSTYSLSSTLTLSKADYEKHKVYACEVTHQGLSSPVTKSFNRGECGGGGSEVQLVESGGGLVQPGGSLRLSCAASGFTISSYYIHWVRQAPGKGLEWVASIYSSYGYTSYADSVKGRFTISADTSKNTAYLQMNSLRAEDTAVYYCARTVRGSKKPYFSGWAMDYWGQGTLVTVSSGGGGSDIQMTQSPSSLSASVGDRVTITCRASQSVSSAVAWYQQKPGKAPKLLIYSASSLYSGVPSRFSGSRSGTDFTLTISSLQPEDFATYYCQQYYFLITFGQGTKVEIK
  TOPFLASH EC50: 0.4 nM
  TOPFLASH Maximal Signal (% Wnt3a maxima) (% Wnt3a maxima): 42
